The test system of the data set is [H][C@@]12COP(=O)(O)O[C@@]1([H])[C@@H](O)[C@H](n1cnc3c(=O)[nH]c(N)nc31)O2. Nature of the data set: purified protein. Particulars: […] MgCl2 in the reaction buffer catalytic site.

The results in this text go back to PMC9968969.

A word on the Km: it is the substrate concentration at which the rate is half of its maximum. As to PDE5A (Homo sapiens), the Km was 3.87 ± 0.12 µM.
